Patent US20210292396A1

What was measured:
Assay in all cases: cell-based or functional assay
[1] = target: Env of HIV isolate CNE21 (clade BC) (HIV)
[2] = target: HIV Env of isolate CH117.4 (HIV)
[3] = target: Env of HIV isolate 6101.10 (clade B) (HIV)
[4] = target: HIV Env of isolate 3873.v1.c24 (HIV)
[5] = target: Env of HIV isolate 16845-2.22 (clade C) (HIV)
[6] = target: Env of HIV isolate CNE59 (clade AE) (HIV)
[7] = target: Env of HIV isolate CNE15 (clade BC) (HIV)
[8] = target: Env of HIV isolate MW965.26 (clade C) (HIV)
[9] = target: Env of HIV isolate X1632.S2.B10 (clade G) (HIV)
Env of SIVmac251.30.SG3 = target: Env of SIVmac251.30.SG3
[10] = target: Env of HIV isolate 247-23 (clade D) (HIV)
[11] = target: Env of HIV isolate CNE57 (clade B) (HIV)
[12] = target: HIV Env of isolate ZM176.66 (HIV)
[13] = target: Env of HIV isolate 6322.v4.c1 (clade C) (HIV)
[14] = target: HIV Env of isolate CH070.1 (HIV)
[15] = target: HIV Env of isolate CNE30 (HIV)
[16] = target: Env of HIV isolate HXB2.DG (clade B) (HIV)
[17] = target: Env of HIV isolate ZM106.9 (clade C) (HIV)
[18] = target: Env of HIV isolate CAP244.D3 (clade C) (HIV)
[19] = target: Env of HIV isolate BB201.B42 (clade A) (HIV)
[20] = target: Env of HIV isolate A03349M1.vrc4a (clade D) (HIV)
[21] = target: HIV Env of isolate 6322.v4.c1 (HIV)
[22] = target: HIV Env of isolate A03349M1.vrc4a (HIV)
[23] = target: Env of HIV isolate ZM55.28a (clade C) (HIV)
[24] = target: Env of HIV isolate CNE58 (clade C in Table 7) (HIV)
[25] = target: Env of HIV isolate X1254.c3 (clade G) (HIV)
[26] = target: Env of HIV isolate X2278.C2.B6 (clade B) (HIV)
[27] = target: Env of HIV isolate 45_01dG5 (clade B) (HIV)
[28] = target: Env of HIV isolate 3337.v2.c6 (clade CD) (HIV)
[29] = target: Env of HIV isolate TH976.17 (clade AE) (HIV)
[30] = target: HIV Env of isolate ZM109.4 (HIV)
[31] = target: HIV Env of isolate 6838.v1.c35 (HIV)
[32] = target: HIV Env of isolate CAP45.G3 (HIV)
[33] = target: Env of HIV isolate R3265.c6 (clade AE) (HIV)
[34] = target: Env of HIV isolate X2131.C1.B5 (clade G) (HIV)
[35] = target: Env of HIV isolate 288.38 (clade C) (HIV)
[36] = target: HIV Env of isolate NKU3006.ec1 (HIV)
[37] = target: Env of HIV isolate REJO.67 (clade B) (HIV)
[38] = target: HIV Env of isolate CNE40 (HIV)
[39] = target: Env of HIV isolate KER2018.11 (clade A) (HIV)
[40] = target: Env of HIV isolate 001428-2.42 (clade C) (HIV)
[41] = target: Env of HIV isolate TZA125.17 (clade C) (HIV)
[42] = target: Env of HIV isolate 6631.v3.c10 (clade C) (HIV)
[43] = target: HIV Env of isolate ZM233.6 (HIV)
[44] = target: Env of HIV isolate SF162.LS (clade B) (HIV)
[45] = target: Env of HIV isolate CNE5 (clade AE) (HIV)
[46] = target: Env of HIV isolate R2184.c4 (clade AE) (HIV)
[47] = target: HIV Env of isolate 286.36 (HIV)
[48] = target: Env of HIV isolate ZM197.7 (clade C) (HIV)
[49] = target: HIV Env of isolate 25925-2.22 (HIV)

B1: ePGT121.18 (ePGT121.18.H1 VH and ePGT121.17.L1 VL) (antibody, V domains shown)
VH: QMQLQESGPGLVKPGETLSLTCSVSGASISSSYWSWLRETPGKGLEWIGYTHHSGDTNYAPSLKSRVHLGLHPSKNQVSLSLTSVTAADTAVYYCARTLHGRRIYGVVAFNEYYTYFYWPTWGKGTQVTVSS
VL: SDISVAPGETVRITCGGESIGSRAVQWYQHRPGQAPRLIIYNNQDRPPGIPERFSGSPDIDFGTTATLTISNVEAGDEATYYCHIWDSRRPTNWELGPGTTLTVL
- IC50, pseudovirus neutralization [1]: 0.0009 µg/mL
- IC80, pseudovirus neutralization (M1) [2]: > 50 µg/mL
- IC80, pseudovirus neutralization (M2) [2]: > 50 µg/mL
- IC50, pseudovirus neutralization [3]: 0.001 µg/mL
- IC80, pseudovirus neutralization (M1) [4]: 0.006 µg/mL
- IC80, pseudovirus neutralization (M2) [4]: 0.011 µg/mL
- IC50, pseudovirus neutralization [5]: 0.036 µg/mL
- IC50, pseudovirus neutralization [6]: > 50 µg/mL
- IC50, pseudovirus neutralization [7]: 5.69 µg/mL
- IC50, pseudovirus neutralization [8]: 0.003 µg/mL
- IC50, pseudovirus neutralization [9]: > 50 µg/mL
- IC80, pseudovirus neutralization (M1) (Env of SIVmac251.30.SG3): > 50 µg/mL
- IC80, pseudovirus neutralization (M2) (Env of SIVmac251.30.SG3): > 50 µg/mL
- IC50, pseudovirus neutralization [10]: > 50 µg/mL
- IC50, pseudovirus neutralization [11]: 0.002 µg/mL
- IC80, pseudovirus neutralization (M1) [12]: 0.091 µg/mL
- IC80, pseudovirus neutralization (M2) [12]: 0.106 µg/mL
- IC50, pseudovirus neutralization [13]: > 50 µg/mL
- IC80, pseudovirus neutralization (M1) [14]: 0.002 µg/mL
- IC80, pseudovirus neutralization (M2) [14]: 0.002 µg/mL
- IC80, pseudovirus neutralization (M1) [15]: 0.013 µg/mL
- IC80, pseudovirus neutralization (M2) [15]: 0.016 µg/mL
- IC50, pseudovirus neutralization [16]: 0.003 µg/mL
- IC50, pseudovirus neutralization [17]: 0.001 µg/mL
- IC50, pseudovirus neutralization [18]: 21.2 µg/mL
- IC50, pseudovirus neutralization [19]: 0.002 µg/mL
- IC50, pseudovirus neutralization [20]: 0.002 µg/mL
- IC80, pseudovirus neutralization (M1) [21]: > 50 µg/mL
- IC80, pseudovirus neutralization (M2) [21]: > 50 µg/mL
- IC80, pseudovirus neutralization (M1) [22]: 0.007 µg/mL
- IC80, pseudovirus neutralization (M2) [22]: 0.011 µg/mL
- IC50, pseudovirus neutralization [23]: 0.005 µg/mL
- IC50, pseudovirus neutralization [24]: 0.016 µg/mL
- IC50, pseudovirus neutralization [25]: 0.002 µg/mL
- IC50, pseudovirus neutralization [26]: 0.001 µg/mL
- IC50, pseudovirus neutralization [27]: 0.001 µg/mL
- IC50, pseudovirus neutralization [28]: 0.232 µg/mL
- IC50, pseudovirus neutralization [29]: > 50 µg/mL
- IC80, pseudovirus neutralization (M1) [30]: > 50 µg/mL
- IC80, pseudovirus neutralization (M2) [30]: > 50 µg/mL
- IC80, pseudovirus neutralization (M1) [31]: 2.59 µg/mL
- IC80, pseudovirus neutralization (M2) [31]: 13.4 µg/mL
- IC80, pseudovirus neutralization (M1) [32]: 20.6 µg/mL
- IC80, pseudovirus neutralization (M2) [32]: 47.5 µg/mL
- IC50, pseudovirus neutralization [33]: > 50 µg/mL
- IC50, pseudovirus neutralization [34]: 0.0009 µg/mL
- IC50, pseudovirus neutralization [35]: 0.0008 µg/mL
- IC80, pseudovirus neutralization (M1) [36]: > 50 µg/mL
- IC80, pseudovirus neutralization (M2) [36]: > 50 µg/mL
- IC50, pseudovirus neutralization [37]: 0.731 µg/mL
- IC80, pseudovirus neutralization (M1) [38]: 0.047 µg/mL
- IC80, pseudovirus neutralization (M2) [38]: 0.047 µg/mL
- IC50, pseudovirus neutralization [39]: > 50 µg/mL
- IC50, pseudovirus neutralization [40]: 0.001 µg/mL
- IC50, pseudovirus neutralization [41]: 0.028 µg/mL
- IC50, pseudovirus neutralization [42]: 0.01 µg/mL
- IC80, pseudovirus neutralization (M1) [43]: 0.024 µg/mL
- IC80, pseudovirus neutralization (M2) [43]: 0.024 µg/mL
- IC50, pseudovirus neutralization [44]: 0.002 µg/mL
- IC50, pseudovirus neutralization [45]: 7.18 µg/mL
- IC50, pseudovirus neutralization [46]: > 50 µg/mL
- IC80, pseudovirus neutralization (M1) [47]: 0.003 µg/mL
- IC80, pseudovirus neutralization (M2) [47]: 0.004 µg/mL
- IC50, pseudovirus neutralization [48]: > 50 µg/mL
- IC80, pseudovirus neutralization (M1) [49]: 0.008 µg/mL
- IC80, pseudovirus neutralization (M2) [49]: 0.01 µg/mL

B2: ePGT121.15.H2.L1 (antibody, V domains shown)
VH: QMQLQESGPGLVKPGETLSLTCSVSGASISSSYWSWLRETPGKGLEWIGYTHHSGDTNYAPSLKSRVHLGLHPSKNQVSLSLTSVTAADTAVYYCARTLHGRRIYGVVAFNEWFTYFYWEVWGKGTQVTVSS
VL: SDISVAPGETVRISCGGESIGSRAVQWYQHRAGQAPKLIIYNNQDRPPGIPERFSGSPDIDFGTTATLTITNVEAGDEATYYCHIWDSRRPTNWVFGGGTTLTVL
- neutralization (Table 6 value) [15]: 0.00312
